# Measured values reported in publication PMC4383704 (Cancer research, 2015).
# Target: mouse uPA (Mus musculus, UniProt P06869)
# Assay: ELISA
# mouse uPA, sequence (P06869 21-433): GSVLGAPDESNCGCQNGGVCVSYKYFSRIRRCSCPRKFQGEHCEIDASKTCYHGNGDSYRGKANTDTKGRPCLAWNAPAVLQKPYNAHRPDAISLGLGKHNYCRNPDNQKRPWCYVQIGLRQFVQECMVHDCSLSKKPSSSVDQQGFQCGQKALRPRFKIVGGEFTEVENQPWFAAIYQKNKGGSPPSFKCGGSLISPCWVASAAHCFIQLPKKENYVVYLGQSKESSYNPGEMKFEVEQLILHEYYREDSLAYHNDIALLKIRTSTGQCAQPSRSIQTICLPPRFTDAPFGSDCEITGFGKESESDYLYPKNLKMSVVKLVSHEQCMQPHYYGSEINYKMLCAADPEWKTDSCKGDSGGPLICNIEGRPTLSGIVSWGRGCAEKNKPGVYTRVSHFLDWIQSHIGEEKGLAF
binder,measurement,value
"U33 Fab (Fab, V domains shown) VH: EVQLVQSGGGLVKPGRSLRLSCTASGFTFGDYAMSWVRQAPGKGLEWVGFIRSKAYGGTTEYAAVKGRFTISRDDSKSIAYLQMNSLKTEDTAVYYCIRGANWNWGQGTLVTVSS VL: EIVLTQSPLSLPVTPGEPASISCRSSQTLMNRNGNNFLDWYLQKPGQSPQLLIYLGSNRAPGVPDRFSGSGSGTDFTLKISRVEAEDVGVYYCMQRIEFPYTFGQGTKLEIK",binding result,no binding (tested: 1 μM)
